In article doi:10.1101/2020.05.28.119206:

Target: recombinant medaka ZI-3 precursor (Y74-V420) (medaka)
Assay: SEC-MALS

Work on “recombinant medaka ZI-3 precursor (Y74-V420) (domain or fragment)” yielded a stoichiometry N of 2.
